According to paper doi:10.1101/2020.01.21.914390 (bioRxiv, 2020):

Molecular target: GST tagged MYB52 fusion protein (Arabidopsis thaliana, UniProt Q6R0C4 1-249)
Experiment: pull-down

Sequence of GST tagged MYB52 fusion protein (Q6R0C4 whole entry, the tested form may be a part): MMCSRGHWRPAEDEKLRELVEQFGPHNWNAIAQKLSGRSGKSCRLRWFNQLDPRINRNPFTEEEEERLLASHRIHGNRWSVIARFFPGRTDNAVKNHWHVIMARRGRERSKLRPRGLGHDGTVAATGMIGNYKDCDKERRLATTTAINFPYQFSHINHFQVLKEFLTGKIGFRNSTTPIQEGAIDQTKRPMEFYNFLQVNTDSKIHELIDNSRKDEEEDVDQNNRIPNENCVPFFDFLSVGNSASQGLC

B1: MBP tagged ERF4 fusion protein (ETHYLENE RESPONSIVE FACTOR4) (natural protein)
chain: not shown
  binding result: binds
